{
  "source": "paper doi:10.1101/743492",
  "biological_target": "mCherry-labeled WASp (Drosophila melanogaster)",
  "assay": "FRET or BRET",
  "data": [
    {"substance": "eGFP-labeled Cdc42 (from UniProt P40793 1-191) (natural protein)", "values": [
      {"measurement": "FRET probability", "value": 0.24}
    ]}
  ]
}
